B1: FIXa-N260S/R318Y/R338E/R403E/E410N (protein)
chain 1: YNSGKLEEFVQGNLERECMEEKCSFEEAREVFENTERTTEFWKQYVDGDQCESNPCLNGGSCKDDINSYECWCPFGFEGKNCELDVTCNIKNGRCEQFCKNSADNKVVCSCTEGYRLAENQKSCEPAVPFPCGRVSVSQTSKLTR
chain 2: VVGGEDAKPGQFPWQVVLNGKVDAFCGGSIVNEKWIVTAAHCVETGVKITVVAGEHNIEETEHTEQKRNVIRIIPHHNYSAAINKYNHDIALLELDEPLVLNSYVTPICIADKEYTNIFLKFGSGYVSGWGRVFHKGYSALVLQYLRVPLVDRATCLESTKFTIYNNMFCAGFHEGGRDSCQGDSGGPHVTEVEGTSFLTGIISWGEECAMKGKYGIYTKVSEYVNWIKNKTKLT
B2: FIXa-R318Y/R338E/T412A (protein)
chain 1: B1 chain 1
chain 2: B1 chain 2 with S80N, E223R, N230E, T232A
B3: FIXa-D203N/F205T/R338A (protein)
chain 1: B1 chain 1
chain 2: B1 chain 2 with D23N, F25T, S80N, Y138R, E158A, E223R, N230E
B4: FIXa-D203N/F205T/R318Y (protein)
chain 1: B1 chain 1
chain 2: B1 chain 2 with D23N, F25T, S80N, E158R, E223R, N230E
B5: FIXa-K228N/R318Y/E410N (protein)
chain 1: B1 chain 1
chain 2: B1 chain 2 with K48N, S80N, E158R, E223R
B6: FIXa-K228N/R338E/R403E (protein)
chain 1: B1 chain 1
chain 2: B1 chain 2 with K48N, S80N, Y138R, N230E
B7: FIXa-R318Y/R338E/N346D/R403E/E410N (protein)
chain 1: B1 chain 1
chain 2: B1 chain 2 with S80N, N166D
B8: FIXa-R318Y/R403E/E410N (protein)
chain 1: B1 chain 1
chain 2: B1 chain 2 with S80N, E158R
B9: FIXa-D203N/F205T/R338E (protein)
chain 1: B1 chain 1
chain 2: B1 chain 2 with D23N, F25T, S80N, Y138R, E223R, N230E
B10: FIXa-Y155F/R318Y/R338E/E410N (protein)
chain 1: B1 chain 1
chain 2: B1 chain 2 with S80N, E223R
B11: FIXa-D203N/F205T/K228N (protein)
chain 1: B1 chain 1
chain 2: B1 chain 2 with D23N, F25T, K48N, S80N, Y138R, E158R, E223R, N230E
B12: FIXa-D203N/F205T/E410N (protein)
chain 1: B1 chain 1
chain 2: B1 chain 2 with D23N, F25T, S80N, Y138R, E158R, E223R
B13: FIXa-D203N/F205T/R338E/R403E (protein)
chain 1: B1 chain 1
chain 2: B1 chain 2 with D23N, F25T, S80N, Y138R, N230E
B14: FIXa-D104N/K106S/R318Y/R338E/E410N (protein)
chain 1: B1 chain 1 with D104N, K106S
chain 2: B1 chain 2 with S80N, E223R
B15: FIXa-R318Y/R338E/E410N/T412V (protein)
chain 1: B1 chain 1
chain 2: B1 chain 2 with S80N, E223R, T232V
B16: FIXa-R318Y/R338E/R403E (protein)
chain 1: B1 chain 1
chain 2: B1 chain 2 with S80N, N230E
B17: FIXa-D104N/K106S/N260S/R318Y/R338E/R403E/E410N (protein)
chain 1: B1 chain 1 with D104N, K106S
chain 2: B1 chain 2
B18: FIXa-Y155F/N260S/R318Y/R338E/R403E/E410N (protein)
chain 1: B1 chain 1
chain 2: B1 chain 2
B19: FIXa-Y259F/K265T/Y345T (protein)
chain 1: B1 chain 1
chain 2: B1 chain 2 with Y79F, S80N, K85T, Y138R, E158R, Y165T, E223R, N230E
B20: FIXa-R318Y/R338E/R403E/T412A (protein)
chain 1: B1 chain 1
chain 2: B1 chain 2 with S80N, N230E, T232A
B21: FIXa-D104N/K106S/Y155F/K228N/K247N/N249S (protein)
chain 1: B1 chain 1 with D104N, K106S
chain 2: B1 chain 2 with K48N, K67N, N69S, S80N, Y138R, E158R, E223R, N230E
B22: FIXa-D104N/K106S/I251S/R318Y/R338E/E410N (protein)
chain 1: B1 chain 1 with D104N, K106S
chain 2: B1 chain 2 with I71S, S80N, E223R
B23: FIXa-K228N/R318Y/R338E/R403E/E410N (protein)
chain 1: B1 chain 1
chain 2: B1 chain 2 with K48N, S80N
B24: FIXa-R318Y/R338E/E410S (protein)
chain 1: B1 chain 1
chain 2: B1 chain 2 with S80N, E223R, N230S
B25: FIXa-Y155F/K228N/K247N/N249S (protein)
chain 1: B1 chain 1
chain 2: B1 chain 2 with K48N, K67N, N69S, S80N, Y138R, E158R, E223R, N230E
B26: FIXa-D104N/K106S/K228N/K247N/N249S (protein)
chain 1: B1 chain 1 with D104N, K106S
chain 2: B1 chain 2 with K48N, K67N, N69S, S80N, Y138R, E158R, E223R, N230E

Changes are numbered by the printed parent chain. Names may count otherwise. Bounds are passed on as bounds.

As usually defined, the KM is the substrate concentration at which the rate is half of its maximum. As usually defined, the kcat/KM is the turnover number divided by the Michaelis constant.

Chain of Factor X, P00742 (P00742 whole entry, looked up): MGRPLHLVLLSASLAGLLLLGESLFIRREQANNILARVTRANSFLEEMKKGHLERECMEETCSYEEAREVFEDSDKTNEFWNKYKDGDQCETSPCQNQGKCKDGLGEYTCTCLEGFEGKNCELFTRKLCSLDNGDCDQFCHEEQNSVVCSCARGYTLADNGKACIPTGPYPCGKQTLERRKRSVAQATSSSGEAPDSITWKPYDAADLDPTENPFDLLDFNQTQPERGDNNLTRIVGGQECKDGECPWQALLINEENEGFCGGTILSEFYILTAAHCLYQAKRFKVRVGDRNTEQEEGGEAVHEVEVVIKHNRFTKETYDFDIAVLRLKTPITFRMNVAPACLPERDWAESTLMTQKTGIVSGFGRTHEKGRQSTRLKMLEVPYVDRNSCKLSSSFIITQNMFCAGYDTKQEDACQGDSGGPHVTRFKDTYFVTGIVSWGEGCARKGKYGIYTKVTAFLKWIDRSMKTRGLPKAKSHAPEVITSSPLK

One data set deals with Factor X (FX), P00742.
Chain of Factor X (FX), P00742 (P00742 whole entry, looked up): as above
For B1, the KM (nM); Catalytic activity of FIXa variants (KM) came out at 72.4 nM and the kcat of FX activation by FIXa in the Xase complex (FVIIIa, PC/PS vesicles, Ca2+) was determined as 3.8 s⁻¹.
In the case of B2, the kcat of FX activation by FIXa in the Xase complex (FVIIIa, PC/PS vesicles, Ca2+) amounted to 7 s⁻¹.
As for B3, the kcat/KM for FX activation (Xase assay with FVIIIa, PC/PS vesicles, Ca2+) came to 6.2e+07 M⁻¹ s⁻¹.
In the case of B4, the kcat/KM for FX activation (Xase assay with FVIIIa, PC/PS vesicles, Ca2+) came to 2e+07 M⁻¹ s⁻¹.
Turning to B5, the kcat/KM (M^-1s^-1), FX activation by FIXa in the Xase complex stood at 1.2e+08 M⁻¹ s⁻¹.
As to B6, the kcat/KM for FX activation (Xase assay with FVIIIa, PC/PS vesicles, Ca2+) came to 4.8e+07 M⁻¹ s⁻¹.
Consider B7, for which the KM (nM); Catalytic activity of FIXa variants (KM) stood at 77.7 nM and the kcat of FX activation by FIXa in the Xase complex (FVIIIa, PC/PS vesicles, Ca2+) is 2.5 s⁻¹.
As to B8, the kcat/KM (M^-1s^-1), FX activation by FIXa in the Xase complex is 2.5e+07 M⁻¹ s⁻¹.
Regarding B9, the kcat/KM for FX activation (Xase assay with FVIIIa, PC/PS vesicles, Ca2+) was found to be 1e+08 M⁻¹ s⁻¹.
Turning to B10, the kcat/KM (M^-1s^-1), FX activation by FIXa in the Xase complex worked out at 3.7e+08 M⁻¹ s⁻¹.
Take B11: the kcat/KM for FX activation (Xase assay with FVIIIa, PC/PS vesicles, Ca2+) worked out at 1.4e+07 M⁻¹ s⁻¹.
On the same count and under the same terms, the value for B12 was 4.2e+07 M⁻¹ s⁻¹; that for B13 was 1.9e+07 M⁻¹ s⁻¹.
B14: the kcat/KM (M^-1s^-1), FX activation by FIXa in the Xase complex is 2.6e+08 M⁻¹ s⁻¹.
As for B15, the KM came out at 0.0236 µM; the KM (nM); Catalytic activity of FIXa variants (KM) was determined as 29.7 nM; the kcat of FX activation by FIXa in the Xase complex (FVIIIa, PC/PS vesicles, Ca2+) amounted to 5.2 s⁻¹; the kcat/KM was 2.4e+08 M⁻¹ s⁻¹.
For the protein B16, the kcat/KM for FX activation (Xase assay with FVIIIa, PC/PS vesicles, Ca2+) was determined as 6.5e+07 M⁻¹ s⁻¹.
On to B17, for which the KM (nM); Catalytic activity of FIXa variants (KM) stood at 61.1 nM and the kcat of FX activation by FIXa in the Xase complex (FVIIIa, PC/PS vesicles, Ca2+) turned out to be 5.4 s⁻¹.
In the same order, the values of B18 are 83.9 nM and 5.8 s⁻¹.

The next data set addresses Factor X, P00742.
With B19, the kcat of FX activation by FIXa (Xase complex with FVIIIa, PC/PS vesicles, Ca2+) turned out to be 1.7 s⁻¹.
Consider B3, for which the “% of WT (kcat/KM)” value was found to be 135%, the KM (Catalytic activity of FIXa variants) stood at 0.0385 µM and the kcat/KM amounted to 6.2e+07 M⁻¹ s⁻¹.
In the same order, the values of B4 are 44%, 0.0475 µM and 2e+07 M⁻¹ s⁻¹.
B5: the KM (Catalytic activity of FIXa variants) came out at 0.042 µM.
As to B6, the “% of WT (kcat/KM)” value is given as 105% and the KM (Catalytic activity of FIXa variants) came to 0.0592 µM.
In the case of B8, the KM (Catalytic activity of FIXa variants) is 0.0883 µM.
For B9, the “% of WT (kcat/KM)” value came to 228%, the KM (Catalytic activity of FIXa variants) is 0.0241 µM and the kcat/KM came out at 1e+08 M⁻¹ s⁻¹.
As to B10, the KM (Catalytic activity of FIXa variants) is 0.016 µM.
Take B11: the “% of WT (kcat/KM)” value is 30%, the KM (Catalytic activity of FIXa variants) worked out at 0.0399 µM and the kcat/KM was 1.4e+07 M⁻¹ s⁻¹.
For the protein B12, the “% of WT (kcat/KM)” value was 91%, the KM (Catalytic activity of FIXa variants) was 0.0455 µM and the kcat/KM is 4.2e+07 M⁻¹ s⁻¹.
For the protein B13, the “% of WT (kcat/KM)” value came to 41%, the KM (Catalytic activity of FIXa variants) was 0.0511 µM and the kcat/KM came out at 1.9e+07 M⁻¹ s⁻¹.
As to B14, the KM (Catalytic activity of FIXa variants) was 0.0189 µM.
As to B16, the “% of WT (kcat/KM)” value turned out to be 134%, the KM (Catalytic activity of FIXa variants) was 0.0537 µM and the kcat/KM was found to be 6.2e+07 M⁻¹ s⁻¹.

A further data set concerns the target antithrombin III (plasma purified human AT-III), in complex with unfractionated heparin.
As to B3, the K0.5 came to 423 nM and the K0.5-mut/K0.5-wt was 21.9.
As to B4, the K0.5 amounted to 7230 nM and the K0.5-mut/K0.5-wt worked out at 374.
The protein B5 gave a K0.5 of 475 nM and a K0.5-mut/K0.5-wt of 24.6.
In the same order, the values of B6 are 1680 nM and 86.8.
The corresponding values for B8 are 7070 nM and 366.
The corresponding values for B9 are 1170 nM and 60.5.
As for B10, the K0.5 was determined as 1100 nM and the K0.5-mut/K0.5-wt worked out at 56.8.
With B11, the K0.5 turned out to be 822 nM and the K0.5-mut/K0.5-wt stood at 42.5.
In the same order, the values of B12 are 377 nM and 19.5.
In the same order, the values of B13 are 1520 nM and 78.6.
The corresponding values for B14 are 6330 nM and 327.
B16: the K0.5 is more than 10000 nM and the K0.5-mut/K0.5-wt is more than 517.

The target of the next data set is plasma purified human AT-III (antithrombin III), in complex with full-length unfractionated heparin (AT-III/UFH).
For the protein B19, the K0.5-mut/K0.5-wt (against Catalyst Biosciences WT FIXa) worked out at 0.3.
Still for that read-out and setting: under B1 stands more than 517; under B2, 396.
Still for that read-out and setting: the value for B20 was more than 517; that for B21 was 1.6; that for B22 was 464.
In the case of B7, the K0.5-mut/K0.5-wt (against Catalyst Biosciences WT FIXa) is more than 517.
Still for that read-out and setting: the value for B23 was more than 517; that for B24 was 279.
The same measure, in the same setting: the value for B15 was more than 517; that for B17 was more than 517; that for B25 was 1.4.
Still for that read-out and setting: under B26 stands 2.1.
Consider B18, for which the K0.5-mut/K0.5-wt (against Catalyst Biosciences WT FIXa) is 501.

The values above are taken from patent US20210230570.
